Laboratory results published in the supplement of paper PMC10065799, “High-throughput profiling of sequence recognition by tyrosine kinases and SH2 domains using bacterial peptide display” (eLife, 2023).

Each sequence was assayed on c-Src (assay: phosphorylation enrichment, bacterial display (enrichment ratio); higher = better substrate or ligand; peptides without Tyr show the background).
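Also: 11-residue human phosphosite peptides and single-mutation variants displayed on the E. coli surface, counted by deep sequencing, each peptide's frequency after selection divided by its frequency in the unselected input library; frequency after pTyr selection over input frequency; kinase dosed for 20-30% of maximal phosphorylation in three min.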

Sequence	phosphorylation enrichment
VHNLDYFKETT [FGFR3_Y647_K650E_YF]	0.445
TCFDKYTGNTF [FN1_Y101_YF]	0.544
IHTDAYVRAMT [RPE65_Y89_R85H]	0.363
YCRITYDIFPF [INTS13_Y67_M66T]	2.57
LFIGQYSGKKE [L1CAM_Y1229_S1224L]	1.12
KVDKECEVRVR [GHR_Y226_Y226C]	0.446
WRRLIYRCQVG [NR2E3_Y81_R76W]	0.494
IQKWEYVPLGP [FAH_Y244]	0.453
EWKNNYPRLRE [OPA1_Y582]	0.371
RLPNGYGLAFR [DLK1_Y262_S260N_YF]	0.616
ATARPYSPYII [LRP5_Y1528_R1529S]	1.02
HKLSFNEFDFE [BTK_Y40_Y40N_YF]	0.864
HLDRSYSYSYS [PEAR1_Y890_R885H]	0.474
KLVRLYAVVTR [LYN_Y306]	0.611
HFVDEYDPTIE [KRAS_Y32]	0.779
ISKQEYDEAGP [ACTC1_Y364]	0.598
RIFDYYSARKT [STOX1_Y858_A863T]	0.473
GANSEYIIAEK [ECHS1_Y35_F33S]	0.646
DRLASYLDKLR [KRT12_Y139_V143L]	0.498
PNRILYGDFWQ [MYH6_Y717_R721W]	4.24
LEFNEYFRDLN [HPRT1_Y198_D194E_YF]	0.809
IDQDKYAVRFI [FLNA_Y2388]	0.393
RGRSTCYWPRP [GAGE12J_Y9_Y9C]	0.816
LTTEAYEWEPR [ELMOD3_Y61]	1.31
ETGNLYIAKVE [CNTN4_Y180]	0.391
QNTVDYYDLYG [PTPN11_Y62_G60V]	5.35
EAAFVYAISSA [WNT4_Y113]	2.79
HKLSFYEFDFE [BTK_Y40_YF]	1.24
VFAPDYIAGVS [NOB1_Y366]	0.55

What follows are sequences tested against EPHB1 (UniProt P54762) in the same assay as above.
Sequence of EPHB1 (P54762 whole entry, looked up): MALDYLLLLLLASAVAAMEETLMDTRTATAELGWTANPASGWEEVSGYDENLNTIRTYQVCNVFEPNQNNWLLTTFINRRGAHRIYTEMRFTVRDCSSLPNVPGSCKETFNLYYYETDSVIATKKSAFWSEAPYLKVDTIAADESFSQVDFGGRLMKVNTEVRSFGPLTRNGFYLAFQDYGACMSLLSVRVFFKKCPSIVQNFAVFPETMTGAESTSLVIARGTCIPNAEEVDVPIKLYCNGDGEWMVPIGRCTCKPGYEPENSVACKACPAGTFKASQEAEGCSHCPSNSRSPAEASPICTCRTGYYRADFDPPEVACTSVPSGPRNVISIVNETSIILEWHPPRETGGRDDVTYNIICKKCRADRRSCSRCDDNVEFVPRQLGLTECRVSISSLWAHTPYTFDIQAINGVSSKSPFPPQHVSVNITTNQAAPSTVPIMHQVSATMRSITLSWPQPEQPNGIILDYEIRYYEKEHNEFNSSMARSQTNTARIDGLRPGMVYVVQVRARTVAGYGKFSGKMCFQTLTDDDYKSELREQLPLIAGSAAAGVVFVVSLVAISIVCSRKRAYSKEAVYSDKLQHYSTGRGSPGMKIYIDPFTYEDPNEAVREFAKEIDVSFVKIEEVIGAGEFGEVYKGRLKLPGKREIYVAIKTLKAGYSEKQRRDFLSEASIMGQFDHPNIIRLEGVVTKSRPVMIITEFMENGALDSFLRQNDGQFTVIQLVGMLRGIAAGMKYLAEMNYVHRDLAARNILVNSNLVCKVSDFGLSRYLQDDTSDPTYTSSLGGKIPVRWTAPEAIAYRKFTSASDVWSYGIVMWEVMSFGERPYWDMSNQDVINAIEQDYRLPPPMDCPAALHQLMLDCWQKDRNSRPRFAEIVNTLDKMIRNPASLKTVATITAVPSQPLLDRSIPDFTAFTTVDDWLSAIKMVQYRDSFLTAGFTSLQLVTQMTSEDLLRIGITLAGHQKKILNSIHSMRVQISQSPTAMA

Sequence	phosphorylation enrichment
VHNLDYFKETT [FGFR3_Y647_K650E_YF]	0.469
TCFDKYTGNTF [FN1_Y101_YF]	0.813
IHTDAYVRAMT [RPE65_Y89_R85H]	0.35
YCRITYDIFPF [INTS13_Y67_M66T]	3.8
LFIGQYSGKKE [L1CAM_Y1229_S1224L]	0.984
KVDKECEVRVR [GHR_Y226_Y226C]	0.513
WRRLIYRCQVG [NR2E3_Y81_R76W]	0.389
IQKWEYVPLGP [FAH_Y244]	0.612
EWKNNYPRLRE [OPA1_Y582]	0.337
RLPNGYGLAFR [DLK1_Y262_S260N_YF]	0.737
ATARPYSPYII [LRP5_Y1528_R1529S]	0.473
HKLSFNEFDFE [BTK_Y40_Y40N_YF]	0.829
HLDRSYSYSYS [PEAR1_Y890_R885H]	0.603
KLVRLYAVVTR [LYN_Y306]	0.799
HFVDEYDPTIE [KRAS_Y32]	0.784
ISKQEYDEAGP [ACTC1_Y364]	0.65
RIFDYYSARKT [STOX1_Y858_A863T]	0.521
GANSEYIIAEK [ECHS1_Y35_F33S]	0.711
DRLASYLDKLR [KRT12_Y139_V143L]	0.494
PNRILYGDFWQ [MYH6_Y717_R721W]	0.689
LEFNEYFRDLN [HPRT1_Y198_D194E_YF]	1.21
IDQDKYAVRFI [FLNA_Y2388]	0.459
RGRSTCYWPRP [GAGE12J_Y9_Y9C]	0.688
LTTEAYEWEPR [ELMOD3_Y61]	1.11
ETGNLYIAKVE [CNTN4_Y180]	0.522
QNTVDYYDLYG [PTPN11_Y62_G60V]	4.44
EAAFVYAISSA [WNT4_Y113]	0.623
HKLSFYEFDFE [BTK_Y40_YF]	0.752
VFAPDYIAGVS [NOB1_Y366]	0.657

What follows are sequences tested against Jak2 (UniProt O60674) in the same assay as above.
Sequence of Jak2 (O60674 whole entry, looked up): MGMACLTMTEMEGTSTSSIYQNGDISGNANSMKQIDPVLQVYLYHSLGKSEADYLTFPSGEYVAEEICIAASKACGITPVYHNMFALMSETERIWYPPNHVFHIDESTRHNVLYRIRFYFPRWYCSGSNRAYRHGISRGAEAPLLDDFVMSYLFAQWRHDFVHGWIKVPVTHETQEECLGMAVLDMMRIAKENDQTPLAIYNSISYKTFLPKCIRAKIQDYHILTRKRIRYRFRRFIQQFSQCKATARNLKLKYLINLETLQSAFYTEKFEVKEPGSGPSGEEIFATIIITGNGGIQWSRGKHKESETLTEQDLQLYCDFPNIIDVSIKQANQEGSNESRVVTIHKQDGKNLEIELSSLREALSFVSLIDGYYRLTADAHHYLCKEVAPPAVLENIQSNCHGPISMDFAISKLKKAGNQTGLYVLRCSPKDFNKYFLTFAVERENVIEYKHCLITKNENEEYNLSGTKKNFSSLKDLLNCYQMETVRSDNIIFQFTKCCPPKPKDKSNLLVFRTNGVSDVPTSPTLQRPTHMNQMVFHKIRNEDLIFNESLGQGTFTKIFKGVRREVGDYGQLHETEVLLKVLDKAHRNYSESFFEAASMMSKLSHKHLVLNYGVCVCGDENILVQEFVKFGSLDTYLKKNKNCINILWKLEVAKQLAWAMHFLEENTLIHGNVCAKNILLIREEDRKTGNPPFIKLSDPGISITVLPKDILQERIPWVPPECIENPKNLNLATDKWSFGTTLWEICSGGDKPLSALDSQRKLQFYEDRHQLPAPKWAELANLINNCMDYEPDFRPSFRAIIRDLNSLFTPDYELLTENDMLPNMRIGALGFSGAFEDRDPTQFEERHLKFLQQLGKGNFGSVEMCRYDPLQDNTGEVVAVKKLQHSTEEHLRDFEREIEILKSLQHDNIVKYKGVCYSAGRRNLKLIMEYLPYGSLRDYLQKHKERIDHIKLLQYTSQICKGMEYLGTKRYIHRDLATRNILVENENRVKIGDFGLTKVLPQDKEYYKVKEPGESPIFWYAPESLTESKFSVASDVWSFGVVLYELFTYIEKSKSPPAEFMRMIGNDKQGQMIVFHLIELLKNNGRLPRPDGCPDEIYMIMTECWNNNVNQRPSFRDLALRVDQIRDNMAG

Sequence	phosphorylation enrichment
VHNLDYFKETT [FGFR3_Y647_K650E_YF]	0.723
TCFDKYTGNTF [FN1_Y101_YF]	1.16
IHTDAYVRAMT [RPE65_Y89_R85H]	0.442
YCRITYDIFPF [INTS13_Y67_M66T]	1.45
LFIGQYSGKKE [L1CAM_Y1229_S1224L]	1.77
KVDKECEVRVR [GHR_Y226_Y226C]	0.821
WRRLIYRCQVG [NR2E3_Y81_R76W]	0.837
IQKWEYVPLGP [FAH_Y244]	1.43
EWKNNYPRLRE [OPA1_Y582]	0.564
RLPNGYGLAFR [DLK1_Y262_S260N_YF]	0.587
ATARPYSPYII [LRP5_Y1528_R1529S]	0.668
HKLSFNEFDFE [BTK_Y40_Y40N_YF]	1.53
HLDRSYSYSYS [PEAR1_Y890_R885H]	1.02
KLVRLYAVVTR [LYN_Y306]	1.15
HFVDEYDPTIE [KRAS_Y32]	1.54
ISKQEYDEAGP [ACTC1_Y364]	1.31
RIFDYYSARKT [STOX1_Y858_A863T]	1.18
GANSEYIIAEK [ECHS1_Y35_F33S]	1.1
DRLASYLDKLR [KRT12_Y139_V143L]	0.713
PNRILYGDFWQ [MYH6_Y717_R721W]	0.999
LEFNEYFRDLN [HPRT1_Y198_D194E_YF]	1.25
IDQDKYAVRFI [FLNA_Y2388]	0.635
RGRSTCYWPRP [GAGE12J_Y9_Y9C]	0.655
LTTEAYEWEPR [ELMOD3_Y61]	1.16
ETGNLYIAKVE [CNTN4_Y180]	0.757
QNTVDYYDLYG [PTPN11_Y62_G60V]	2.63
EAAFVYAISSA [WNT4_Y113]	1.36
HKLSFYEFDFE [BTK_Y40_YF]	2.92
VFAPDYIAGVS [NOB1_Y366]	0.934

What follows are sequences tested on AncSZ in the same assay as above.

Sequence	phosphorylation enrichment
VHNLDYFKETT [FGFR3_Y647_K650E_YF]	0.853
TCFDKYTGNTF [FN1_Y101_YF]	1.35
IHTDAYVRAMT [RPE65_Y89_R85H]	0.475
YCRITYDIFPF [INTS13_Y67_M66T]	1.8
LFIGQYSGKKE [L1CAM_Y1229_S1224L]	1.41
KVDKECEVRVR [GHR_Y226_Y226C]	0.739
WRRLIYRCQVG [NR2E3_Y81_R76W]	0.906
IQKWEYVPLGP [FAH_Y244]	1.02
EWKNNYPRLRE [OPA1_Y582]	0.563
RLPNGYGLAFR [DLK1_Y262_S260N_YF]	1.5
ATARPYSPYII [LRP5_Y1528_R1529S]	0.646
HKLSFNEFDFE [BTK_Y40_Y40N_YF]	1.61
HLDRSYSYSYS [PEAR1_Y890_R885H]	0.718
KLVRLYAVVTR [LYN_Y306]	1.35
HFVDEYDPTIE [KRAS_Y32]	1.74
ISKQEYDEAGP [ACTC1_Y364]	1.28
RIFDYYSARKT [STOX1_Y858_A863T]	0.531
GANSEYIIAEK [ECHS1_Y35_F33S]	1.26
DRLASYLDKLR [KRT12_Y139_V143L]	0.921
PNRILYGDFWQ [MYH6_Y717_R721W]	1.1
LEFNEYFRDLN [HPRT1_Y198_D194E_YF]	2.14
IDQDKYAVRFI [FLNA_Y2388]	0.78
RGRSTCYWPRP [GAGE12J_Y9_Y9C]	1.06
LTTEAYEWEPR [ELMOD3_Y61]	1.69
ETGNLYIAKVE [CNTN4_Y180]	0.896
QNTVDYYDLYG [PTPN11_Y62_G60V]	2.72
EAAFVYAISSA [WNT4_Y113]	1.34
HKLSFYEFDFE [BTK_Y40_YF]	1.73
VFAPDYIAGVS [NOB1_Y366]	1.05
